The target of one test is T1, Sema3B (R&D Systems) (Homo sapiens (Human), UniProt Q13214 25-749).
T1 sequence: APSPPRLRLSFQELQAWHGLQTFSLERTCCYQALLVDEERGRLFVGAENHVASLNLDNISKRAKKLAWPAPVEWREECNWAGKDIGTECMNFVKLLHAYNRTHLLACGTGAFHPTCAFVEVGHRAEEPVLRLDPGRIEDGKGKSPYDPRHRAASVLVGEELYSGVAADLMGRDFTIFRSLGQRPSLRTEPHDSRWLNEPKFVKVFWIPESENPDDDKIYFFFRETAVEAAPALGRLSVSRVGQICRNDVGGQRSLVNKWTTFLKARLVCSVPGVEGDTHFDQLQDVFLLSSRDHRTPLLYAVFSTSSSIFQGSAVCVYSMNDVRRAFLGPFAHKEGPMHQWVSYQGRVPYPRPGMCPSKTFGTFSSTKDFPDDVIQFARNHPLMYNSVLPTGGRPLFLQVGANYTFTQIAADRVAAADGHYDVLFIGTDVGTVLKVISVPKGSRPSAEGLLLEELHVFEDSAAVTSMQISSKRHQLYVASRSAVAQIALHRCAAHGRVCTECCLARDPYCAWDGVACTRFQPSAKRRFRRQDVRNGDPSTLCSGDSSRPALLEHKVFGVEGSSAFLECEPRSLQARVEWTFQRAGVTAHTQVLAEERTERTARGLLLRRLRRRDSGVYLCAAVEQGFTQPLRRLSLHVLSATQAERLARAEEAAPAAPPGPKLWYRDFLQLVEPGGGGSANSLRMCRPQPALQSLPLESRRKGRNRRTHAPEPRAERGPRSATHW
The experiment in a line: ELISA. Background: In an ELISA, binding on a coated surface is turned into a signal by an enzyme label.

The target in the next test is T2, Sema3C (R&D Systems) (Homo sapiens (Human), UniProt Q99985 21-751).
T2 sequence: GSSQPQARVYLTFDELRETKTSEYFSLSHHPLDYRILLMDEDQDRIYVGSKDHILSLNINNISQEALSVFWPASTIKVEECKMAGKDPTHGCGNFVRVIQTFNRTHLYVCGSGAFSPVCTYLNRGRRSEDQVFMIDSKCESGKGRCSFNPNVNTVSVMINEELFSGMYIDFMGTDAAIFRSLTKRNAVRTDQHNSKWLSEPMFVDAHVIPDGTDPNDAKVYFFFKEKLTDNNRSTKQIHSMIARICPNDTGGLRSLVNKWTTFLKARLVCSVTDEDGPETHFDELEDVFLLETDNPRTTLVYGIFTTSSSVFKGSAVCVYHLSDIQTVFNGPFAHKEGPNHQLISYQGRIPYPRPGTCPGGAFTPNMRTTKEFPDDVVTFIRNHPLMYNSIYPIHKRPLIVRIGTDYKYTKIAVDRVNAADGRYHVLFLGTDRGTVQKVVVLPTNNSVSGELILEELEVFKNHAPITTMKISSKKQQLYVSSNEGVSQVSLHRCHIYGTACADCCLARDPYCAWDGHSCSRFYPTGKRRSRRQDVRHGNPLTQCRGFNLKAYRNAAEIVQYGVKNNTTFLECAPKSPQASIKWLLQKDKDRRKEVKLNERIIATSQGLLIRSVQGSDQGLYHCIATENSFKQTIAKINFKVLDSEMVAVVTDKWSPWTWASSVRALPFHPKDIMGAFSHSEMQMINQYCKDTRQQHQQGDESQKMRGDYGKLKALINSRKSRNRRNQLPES
The experiment in a line: ELISA.

In the next test the target is T3, Sema3E (R&D Systems) (Homo sapiens (Human), UniProt O15041 26-775).
T3 sequence: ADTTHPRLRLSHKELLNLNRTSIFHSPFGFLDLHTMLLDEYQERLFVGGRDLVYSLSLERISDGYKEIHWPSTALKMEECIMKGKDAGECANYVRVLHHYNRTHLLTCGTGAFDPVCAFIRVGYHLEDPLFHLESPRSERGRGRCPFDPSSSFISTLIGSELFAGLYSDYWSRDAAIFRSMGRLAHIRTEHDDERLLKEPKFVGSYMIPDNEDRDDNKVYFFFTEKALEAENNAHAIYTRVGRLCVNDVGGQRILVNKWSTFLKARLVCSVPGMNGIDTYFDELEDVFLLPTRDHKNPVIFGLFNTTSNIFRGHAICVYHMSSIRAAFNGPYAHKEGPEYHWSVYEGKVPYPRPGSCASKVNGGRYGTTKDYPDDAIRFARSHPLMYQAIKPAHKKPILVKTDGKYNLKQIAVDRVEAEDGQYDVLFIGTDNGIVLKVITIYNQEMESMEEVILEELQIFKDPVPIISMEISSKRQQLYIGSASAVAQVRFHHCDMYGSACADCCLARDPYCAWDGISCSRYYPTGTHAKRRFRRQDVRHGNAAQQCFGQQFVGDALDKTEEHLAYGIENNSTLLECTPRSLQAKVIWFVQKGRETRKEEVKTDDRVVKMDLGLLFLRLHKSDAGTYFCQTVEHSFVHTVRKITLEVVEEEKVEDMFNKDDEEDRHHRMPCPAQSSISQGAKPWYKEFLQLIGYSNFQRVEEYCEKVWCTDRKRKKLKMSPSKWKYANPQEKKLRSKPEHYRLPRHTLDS
The experiment in a line: ELISA.

Test [1] deals with T4, Human Semaphorin3A-Fc (R&D Systems), TPP-13211 (human).
T4 construct: R&D Systems 1250-S3; also called recombinant human Sema3A-Fc chimera
T4 sequence (chain, as listed by the source limits assumed): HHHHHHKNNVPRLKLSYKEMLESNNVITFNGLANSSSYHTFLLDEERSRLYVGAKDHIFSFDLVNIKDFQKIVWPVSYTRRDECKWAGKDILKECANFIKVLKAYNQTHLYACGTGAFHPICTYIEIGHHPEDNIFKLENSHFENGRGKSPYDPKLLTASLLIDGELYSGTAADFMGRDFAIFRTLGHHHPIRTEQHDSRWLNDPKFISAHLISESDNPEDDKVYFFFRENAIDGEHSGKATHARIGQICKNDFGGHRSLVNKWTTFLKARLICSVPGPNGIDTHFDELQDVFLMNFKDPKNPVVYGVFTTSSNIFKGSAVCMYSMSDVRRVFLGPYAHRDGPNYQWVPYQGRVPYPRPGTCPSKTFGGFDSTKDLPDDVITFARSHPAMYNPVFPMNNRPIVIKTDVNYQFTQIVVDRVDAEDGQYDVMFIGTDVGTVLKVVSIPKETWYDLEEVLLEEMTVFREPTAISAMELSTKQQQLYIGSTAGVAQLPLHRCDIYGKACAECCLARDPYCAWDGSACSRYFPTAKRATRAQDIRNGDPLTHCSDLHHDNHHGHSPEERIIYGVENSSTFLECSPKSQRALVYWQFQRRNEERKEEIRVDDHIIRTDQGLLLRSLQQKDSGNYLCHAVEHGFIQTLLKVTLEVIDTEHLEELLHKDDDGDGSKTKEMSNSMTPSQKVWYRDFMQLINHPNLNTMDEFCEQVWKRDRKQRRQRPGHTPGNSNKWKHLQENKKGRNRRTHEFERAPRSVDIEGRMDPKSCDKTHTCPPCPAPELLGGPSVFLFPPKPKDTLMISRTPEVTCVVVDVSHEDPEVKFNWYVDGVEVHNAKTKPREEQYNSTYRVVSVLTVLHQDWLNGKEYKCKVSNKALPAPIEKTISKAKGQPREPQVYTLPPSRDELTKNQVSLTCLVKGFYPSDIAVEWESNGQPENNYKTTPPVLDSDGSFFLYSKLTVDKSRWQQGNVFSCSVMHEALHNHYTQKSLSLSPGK
The experiment in a line: competition ELISA on coated TPP-13211, competitor biotinylated TPP-15374. Here is the method:
For screening in a competition ELISA setup, human Sema3a (TPP-13211) was coated onto 384-well plates (Greiner bio-one, 781077) with a concentration of 0.5 μg/ml in coating buffer (Carbonate-Basis pH 9.6, Candor 121125) over night at 10° C. After washing the plates 3 times with 50 μl PBS 0.05% Tween the plates were blocked with 50 μl Smart Block® (Candor 113500) for 1 h at 20° C. and washed again 3 times as described.
Subsequently, 20 μl of pre-mixed antibody solution was added to the plates and incubate for 18 h at 10° C. […] The total concentration of the added antibody solution was 0.25 μg/ml. During the incubation time the antibodies bound to the plates in a competitive manner as they compete for the same epitope on the human Sema3A protein.
After subsequent washing with 50 μl PBS 0.05% Tween for 3 times, 20 μl of a Streptavidin-HRP solution (R&D Systems, DY998, 1:200 in PBS 0.05% Tween 10% Smart Block) were added and incubated for 1 h and 20° C. followed by subsequent washing 3 times with 50 μl PBS 0.05% Tween and addition of 20 μl Amplex Red solution (Invitrogen A12222, 1:1000 in NaP-buffer 50 mM pH7.6 with 1:10000 of 30% H2O2). After a final incubation for 20 min at 20° C. the signal was determined using an emission wavelength of 595 nm and excitation of 530 nm.

B1: TPP-15370 (antibody, human IgG1, lambda, V domains shown)
VH: EVQLLESGGGLVQPGGSLRLSCAASGFTFSSYGMHWVRQAPGKGLEWVSAIGTGGDTYYADSVMGRFTISRDNSKNTLYLQMNSLRAEDTAVYYCARRDDYTSRDAFDVWGQGTLVTVSS
VL: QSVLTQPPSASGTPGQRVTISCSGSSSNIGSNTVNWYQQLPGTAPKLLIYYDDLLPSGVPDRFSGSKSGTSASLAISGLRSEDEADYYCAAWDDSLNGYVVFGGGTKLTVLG
notes: human IgG1; also called IgG1, hit from panning; parental mAb
As to B1, the binding result in the test with Sema3B (R&D Systems), with Sema3C (R&D Systems) and in the test with Sema3E (R&D Systems) was “no binding” in each case.

B2: TPP-15374 (antibody, human IgG1, lambda, V domains shown)
VH: EVQLLESGGGLVQPGGSLRLSCAASGFTFSSYEMNWVRQAPGKGLEWVSGISWNSGSIGYADSVKGRFTISRDNSKNTLYLQMNSLRAEDTAVYYCARSGYSSSWFDPDFDYWGQGTLVTVSS
VL: QSVLTQPPSASGTPGQRVTISCTGSSSNIGAGYDVHWYQQLPGTAPKLLIYGNSNRPSGVPDRFSGSKSGTSASLAISGLRSEDEADYYCSSYAGSNPYVVFGGGTKLTVLG
notes: as for B1
Consider B2, for which the binding result with Sema3B (R&D Systems), in the test with Sema3C (R&D Systems) and in the test with Sema3E (R&D Systems) was “no binding” throughout. For the same molecule, the “VAL norm to TPP-9809 (1 to 1 ratio)” value in test [1] amounted to 0.69. Further, in test [1], the “VAL norm to TPP-9809 (1 to 5 ratio)” value is 0.41.

These data come from patent publication US20240254222A1 (Bayer, published 2024).
